Reference: the supplement of paper PMC10567573

B1: FBXO3 (parent)
chain: AGGFQQRQGLKYCLPLTFCIHTGL
B2: C10orf62 (parent)
chain: GHSHHSHHGHPSHQSHSLPNRRH

Variants of: B1
Test: protein stability index of a GFP-peptide fusion (GPS, HEK-293T) (PSI 1-6); higher = more stable
Settings: c terminus: a fixed tail appended
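Also: lentivirally expressed fusions sorted by FACS into six bins by GFP to DsRed ratio, PSI derived from sequencing read proportions per bin multiplied by bin number.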

Variant	protein stability index
Q8W	2.88
Q8T	3.56
Q8D	1.88
Q8G	3.4
Q8C	3.53
Q8M	2.24
R7V	3.75
R7N	2.95
R7Y	2.27
R7F	3.23
R7T	2.6
R7I	2.12
R7P	3.24
R7H	2.74
R7C	2.54
R7S	2.33
R7L	3.44
R7E	2.83
R7D	2.64
R7G	3.16
G3V	2.54
G3F	3.02
G3C	2.66
G3Q	4.36
G3K	2.51
G3T	3.31
G3M	2.47

Variant	protein stability index
G3Y	3.02
G3D	3.1
G3N	3.27
G3S	2.44
G3R	3.24
G3L	3.11
G3P	1.51
G3E	1.99
G3A	1.48
Q6A	2.26
Q6T	2.67
Q6P	3.26
Q6C	2.8
Q6L	3.23
Q6R	2.77
Q6G	2.7
Q6V	2.68
Q6W	3.85
Q6E	3.6
Q6N	3.27
Q6H	3.73
Q6K	3.51
Q6M	2.1
Q6I	3.58
Q6D	1.89
Q6S	2.81
Q6Y	2.09

Variants of: B2
Test: as above
Settings: c terminus: native

Variant	protein stability index
R22F	2.84
R22Q	2.69
R22D	3.39
R22G	2.15
R22T	3.14
R22L	1.29
R22M	3
R22S	3.94
R22Y	2.11
R22K	4
R22E	2
R22P	3.56
R22H	4.93
R22W	2.86
H23K	4.73
H23N	3.15
H23L	3.52
H23S	2.88
H23F	2.77
H23M	2.18
H23Q	2.48
H23V	2.35
H23C	2.68
H23A	2.23
H23W	2.25
H23T	2.88
H23R	4.71
H23Y	3.4
H23P	2.31
H23I	2.78
